# Experimental data as given in US20250277199, “NOVEL CRISPR-CAS NUCLEASES FROM METAGENOMES” (Brain Biotech AG, published 2025).
# T1: BMC15 (uncultured bacterium (metagenome))
# T1 chain: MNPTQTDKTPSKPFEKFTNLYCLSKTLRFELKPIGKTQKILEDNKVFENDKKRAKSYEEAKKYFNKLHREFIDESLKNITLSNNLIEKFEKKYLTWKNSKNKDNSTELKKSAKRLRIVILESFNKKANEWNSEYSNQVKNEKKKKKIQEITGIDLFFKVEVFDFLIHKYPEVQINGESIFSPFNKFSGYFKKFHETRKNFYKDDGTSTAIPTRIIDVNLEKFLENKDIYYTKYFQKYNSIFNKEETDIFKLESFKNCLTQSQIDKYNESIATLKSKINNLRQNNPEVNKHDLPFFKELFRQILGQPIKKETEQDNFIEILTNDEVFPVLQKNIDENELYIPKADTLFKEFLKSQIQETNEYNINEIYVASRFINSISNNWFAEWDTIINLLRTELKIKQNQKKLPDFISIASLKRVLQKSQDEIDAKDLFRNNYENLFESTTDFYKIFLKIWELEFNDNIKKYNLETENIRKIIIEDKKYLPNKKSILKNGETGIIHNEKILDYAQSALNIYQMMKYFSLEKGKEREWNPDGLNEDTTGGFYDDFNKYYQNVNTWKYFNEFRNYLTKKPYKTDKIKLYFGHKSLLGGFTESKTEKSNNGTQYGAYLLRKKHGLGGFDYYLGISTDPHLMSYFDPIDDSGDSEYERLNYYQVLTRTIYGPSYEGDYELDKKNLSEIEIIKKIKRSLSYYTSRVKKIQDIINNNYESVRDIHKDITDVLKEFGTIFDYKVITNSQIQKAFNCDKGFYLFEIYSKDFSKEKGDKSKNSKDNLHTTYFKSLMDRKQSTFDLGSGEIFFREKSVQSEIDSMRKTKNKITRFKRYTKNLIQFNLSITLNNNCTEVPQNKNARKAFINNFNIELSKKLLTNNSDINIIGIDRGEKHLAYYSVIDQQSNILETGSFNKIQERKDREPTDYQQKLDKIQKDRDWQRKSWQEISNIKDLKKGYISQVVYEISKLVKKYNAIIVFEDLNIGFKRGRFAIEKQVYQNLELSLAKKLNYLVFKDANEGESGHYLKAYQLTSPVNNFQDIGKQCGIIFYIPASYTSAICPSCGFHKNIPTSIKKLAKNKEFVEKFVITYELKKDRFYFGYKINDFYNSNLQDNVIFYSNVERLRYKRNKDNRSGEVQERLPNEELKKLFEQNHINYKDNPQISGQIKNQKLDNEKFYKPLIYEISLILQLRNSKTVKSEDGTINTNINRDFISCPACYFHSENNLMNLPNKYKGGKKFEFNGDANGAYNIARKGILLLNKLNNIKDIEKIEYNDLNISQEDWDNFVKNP
# Molecular target: T1, BMC15
# Test: cell_activity; PAM not stated; E. coli depletion, 30 C
# Method in brief: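 E. coli carrying arabinose-induced (0.2%) BMC nuclease, grown at 30° C., made electrocompetent and electroporated with 50-100 ng plasmid carrying gRNA against malQ. Transformants plated on selective M9-glucose agar with kanamycin/ampicillin (± nourseothricin), and growth scored after 48 h at 30° C.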
binder,measurement,value
malQ gRNA (BMC stem-loop + 24 nt spacer) ; malQ protospacer (ssRNA ; dsDNA) RNA: GAUUUCUACUAUUGUAGAUGUGGCGGUACGUUGAUGCAUCGCG DNA 1: GTGGCGGTACGTTGATGCATCGCG DNA 2: CGCGATGCATCAACGTACCGCCAC,activity,> 99.9 % colony reduction
